Blank lines part the entries; values can stand above or below the molecule they belong to.
Key:
[1] = molecular target: IL-TIF protein (SEQ ID NO:3) (human) (UniProt Q9GZX6); assay: cell-based or functional assay
[2] = molecular target: T1, CRF2-4/zcytor11 heterodimeric receptor on BaF3/CRF2-4/zcytor11 cells (human, UniProt Q08334 20-325); assay: cell-based or functional assay
T1 sequence 1: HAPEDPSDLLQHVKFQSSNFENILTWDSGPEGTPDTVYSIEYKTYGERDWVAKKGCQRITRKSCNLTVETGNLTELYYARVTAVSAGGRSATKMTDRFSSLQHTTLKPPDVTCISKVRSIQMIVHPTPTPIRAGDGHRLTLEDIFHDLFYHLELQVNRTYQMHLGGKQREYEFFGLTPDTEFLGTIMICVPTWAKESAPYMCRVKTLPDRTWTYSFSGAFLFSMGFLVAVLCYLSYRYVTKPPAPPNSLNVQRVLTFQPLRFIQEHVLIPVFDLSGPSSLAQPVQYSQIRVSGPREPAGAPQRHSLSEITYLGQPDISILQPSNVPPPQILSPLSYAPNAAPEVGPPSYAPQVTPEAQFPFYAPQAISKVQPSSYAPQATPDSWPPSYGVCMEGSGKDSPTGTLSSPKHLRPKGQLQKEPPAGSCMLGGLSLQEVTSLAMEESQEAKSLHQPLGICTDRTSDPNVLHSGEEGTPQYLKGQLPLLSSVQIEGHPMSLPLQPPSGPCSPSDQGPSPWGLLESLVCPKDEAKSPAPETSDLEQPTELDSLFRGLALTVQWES
T1 sequence 2: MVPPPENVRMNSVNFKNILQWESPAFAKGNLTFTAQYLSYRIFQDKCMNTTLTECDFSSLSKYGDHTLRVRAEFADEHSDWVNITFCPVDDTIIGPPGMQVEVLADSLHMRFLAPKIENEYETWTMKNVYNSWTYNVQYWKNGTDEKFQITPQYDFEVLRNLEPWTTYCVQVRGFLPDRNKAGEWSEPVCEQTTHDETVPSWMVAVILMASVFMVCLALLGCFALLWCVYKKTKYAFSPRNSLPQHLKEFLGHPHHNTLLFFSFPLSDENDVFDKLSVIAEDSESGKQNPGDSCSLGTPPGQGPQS

concentration at which inhibition of IL-TIF-induced proliferation was barely detectable [1]: 63 ng/mL
concentration giving complete inhibition of IL-TIF-induced proliferation [1]: 8 µg/mL
concentration giving partial inhibition of IL-TIF-induced proliferation [1]: 0.125 to 4 µg/mL
Molecule: CRF2-4/zcytor11-Fc4 soluble heterodimer receptor (Fc fusion)

proliferation of BaF3/CRF2-4/zcytor11 cells (Alamar Blue), fold induction at 0.06 ng/ml IL-TIF-CEE [2]: 2 fold
proliferation of BaF3/CRF2-4/zcytor11 cells (Alamar Blue), fold over background at 50 ng/ml IL-TIF-CEE [2]: ~15 fold
B1: IL-TIF-CEE polypeptide purified from BHK 570 cells (ligand)
chain: APISSHCRLDKSNFQQPYITNRTFMLAKEASLADNNTDVRLIGEKLFHGVSMSERCYLMKQVLNFTLEEVLFPQSDRFQPYMQEVVPFLARLSNRLSTCHIEGDDLHIQRNVQKLKDTVKKLGESGEIKAIGELDLLFMSLRNACIEYMPME

proliferation of BaF3/CRF2-4/zcytor11 cells (Alamar Blue) at 100 pg/ml IL-TIF [2]: 13 fold
B2: IL-TIF protein (SEQ ID NO:3) (ligand)
chain: APISSHCRLDKSNFQQPYITNRTFMLAKEASLADNNTDVRLIGEKLFHGVSMSERCYLMKQVLNFTLEEVLFPQSDRFQPYMQEVVPFLARLSNRLSTCHIEGDDLHIQRNVQKLKDTVKKLGESGEIKAIGELDLLFMSLRNACI

Source: patent US20040023341A1 (ZymoGenetics, published 2004)
